Test results published in patent publication US20180250392A1 (published 2018).

Tests used:
[1] = target: T1, murine VEGFR2 (soluble mVEGFR2) (murine, UniProt P35918 20-762); experiment: Biacore, murine VEGFR2
T1 construct: also called mouse VEGFR2

[2] = target: T2, human VEGFR2 (soluble hVEGFR2) (human, UniProt P35968 20-764); experiment: Biacore, human VEGFR2
T2 construct: also called KDR

rat VEGFR2 = rat VEGFR2 (rat, UniProt O08775 20-760, limits assumed); experiment: Biacore, rat VEGFR2
Chain of rat VEGFR2 (O08775 20-760 limits assumed): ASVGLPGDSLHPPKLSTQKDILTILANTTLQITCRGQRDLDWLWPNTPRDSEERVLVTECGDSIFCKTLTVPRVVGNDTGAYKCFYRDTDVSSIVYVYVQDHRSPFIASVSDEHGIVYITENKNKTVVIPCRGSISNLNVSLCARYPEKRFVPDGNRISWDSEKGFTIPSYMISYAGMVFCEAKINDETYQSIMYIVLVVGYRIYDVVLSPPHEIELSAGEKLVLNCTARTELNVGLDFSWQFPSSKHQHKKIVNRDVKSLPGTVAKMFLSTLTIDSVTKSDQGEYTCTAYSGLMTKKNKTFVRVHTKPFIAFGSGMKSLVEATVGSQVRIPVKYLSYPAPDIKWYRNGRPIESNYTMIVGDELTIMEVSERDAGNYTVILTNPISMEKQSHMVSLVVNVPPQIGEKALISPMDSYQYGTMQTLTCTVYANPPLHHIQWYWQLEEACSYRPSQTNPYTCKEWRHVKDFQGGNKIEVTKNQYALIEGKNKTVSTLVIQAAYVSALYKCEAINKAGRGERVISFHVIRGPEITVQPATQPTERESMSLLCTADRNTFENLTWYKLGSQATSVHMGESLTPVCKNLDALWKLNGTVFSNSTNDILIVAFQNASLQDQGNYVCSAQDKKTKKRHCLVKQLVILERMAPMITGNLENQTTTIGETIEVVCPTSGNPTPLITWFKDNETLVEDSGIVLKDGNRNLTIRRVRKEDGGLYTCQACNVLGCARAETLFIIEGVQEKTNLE

T1 sequence (P35918 20-762 limits assumed): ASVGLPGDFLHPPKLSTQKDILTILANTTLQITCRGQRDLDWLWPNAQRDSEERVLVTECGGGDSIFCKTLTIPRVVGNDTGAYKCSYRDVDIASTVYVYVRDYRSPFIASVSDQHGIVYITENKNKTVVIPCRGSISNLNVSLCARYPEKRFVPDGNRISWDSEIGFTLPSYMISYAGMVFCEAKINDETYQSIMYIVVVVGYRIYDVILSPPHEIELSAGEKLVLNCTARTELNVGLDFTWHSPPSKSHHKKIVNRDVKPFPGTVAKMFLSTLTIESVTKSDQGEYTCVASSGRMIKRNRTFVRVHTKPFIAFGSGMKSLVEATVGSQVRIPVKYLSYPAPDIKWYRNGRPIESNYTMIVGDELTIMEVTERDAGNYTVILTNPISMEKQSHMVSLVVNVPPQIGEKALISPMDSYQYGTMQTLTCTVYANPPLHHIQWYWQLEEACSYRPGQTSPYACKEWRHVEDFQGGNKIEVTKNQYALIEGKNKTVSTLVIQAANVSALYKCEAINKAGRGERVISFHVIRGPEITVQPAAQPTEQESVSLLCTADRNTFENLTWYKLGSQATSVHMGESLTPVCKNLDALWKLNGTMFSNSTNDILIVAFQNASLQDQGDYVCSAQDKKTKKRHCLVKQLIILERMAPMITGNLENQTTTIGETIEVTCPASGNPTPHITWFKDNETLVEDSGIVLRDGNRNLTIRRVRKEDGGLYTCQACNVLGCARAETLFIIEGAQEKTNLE
T2 sequence (P35968 20-764 limits assumed): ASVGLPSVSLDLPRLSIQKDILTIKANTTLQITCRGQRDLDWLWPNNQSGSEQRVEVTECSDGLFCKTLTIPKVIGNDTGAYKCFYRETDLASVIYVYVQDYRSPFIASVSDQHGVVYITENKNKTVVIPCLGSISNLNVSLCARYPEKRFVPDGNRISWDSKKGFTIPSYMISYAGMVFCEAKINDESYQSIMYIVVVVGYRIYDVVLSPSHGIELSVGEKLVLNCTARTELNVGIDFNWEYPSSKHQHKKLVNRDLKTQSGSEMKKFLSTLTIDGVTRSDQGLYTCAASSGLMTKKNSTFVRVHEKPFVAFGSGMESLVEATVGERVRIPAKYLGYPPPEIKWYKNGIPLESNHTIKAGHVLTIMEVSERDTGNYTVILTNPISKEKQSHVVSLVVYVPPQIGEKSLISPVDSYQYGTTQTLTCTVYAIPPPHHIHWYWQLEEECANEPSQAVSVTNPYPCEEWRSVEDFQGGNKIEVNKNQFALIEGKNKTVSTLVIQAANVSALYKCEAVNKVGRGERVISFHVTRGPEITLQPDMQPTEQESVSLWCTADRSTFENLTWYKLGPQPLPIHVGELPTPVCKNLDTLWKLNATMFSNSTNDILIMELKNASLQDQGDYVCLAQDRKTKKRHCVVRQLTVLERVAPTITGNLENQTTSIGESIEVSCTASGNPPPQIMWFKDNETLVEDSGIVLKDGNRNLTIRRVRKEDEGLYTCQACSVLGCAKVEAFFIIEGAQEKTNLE

Row | koff [1] [s⁻¹] | kon [1] [M⁻¹ s⁻¹] | koff [2] [s⁻¹] | kon [2] [M⁻¹ s⁻¹] | koff (rat VEGFR2) [s⁻¹] | kon (rat VEGFR2) [M⁻¹ s⁻¹] | Binder
1 | 0.00181 | 22900 | 0.000659 | 86200 | 0.00143 | 33200 | Mab 149 (B1C4_E5) (antibody, V domains shown) VH: EVQLLESGGGLVQPGGSLRLSCAASGFTFSWYVMGWVRQAPGKGLEWVSSIYPSGGATNYADSVKGRFTISRDNSKNTLYLQMNSLRAEDTAVYYCARGNYLDYWGQGTLVTVSS VL: DIQMTQSPGTLSLSPGEGATLSCRASQSVSSNYFGWYQQKPGQAPRLLIYGASSRATGIPDRFSGSGSGTDFTLTISRLEPEDSAVYYCQQFDSSPLSFGGGTKVEIKR
2 | 0.00128 | 43800 | 0.000282 | 113000 | 0.000899 | 64500 | Mab 147 (B1C4_A7) (antibody, V domains shown) VH: EVQLLESGGGLVQPGGSLRLSCAASGFTFSWYVMGWVRQAPGKGLEWVSSIYPQGGATSYADSVKGRFTISRDNSKNTLYLQMNSLRAEDTAVYYCARGNYFDYWGQGTLVTVSS VL: DIQMTQSPGTLSLSPGEGATLSCRASQSVSSNYFGWYQQKPGQAPRLLIYGASSRATGIPDRFSGSGSGTDFTLTISRLEPEDSAVYYCQQFDSLPLTFGGGTKVEIKR
